Laboratory results: patent US20050186203A1 (published 2005)
Numbering of substitutions follows the chain as printed. Values belong to the binder of their own block, whether it stands above or below them.

How the values were obtained:
[1] = target: T1, purified full-length human IGF-I receptor (affinity purified); directly coated or biotinylated and captured on … (human, UniProt P08069 31-1367, biotinylated with PEO-maleimide-biotin reagent in the captured format); experiment: ELISA binding competition with murine EM164 on full-length IGF-I receptor
T1 construct: mature; also called purified human IGF-I receptor; biotinylated human IGF-I receptor
Procedure: (§1) After equilibration, the bound humanized antibody was detected using a goat-anti-human-Fab′₂-antibody-horseradish peroxidase conjugate. Plots of ([bound murine Ab]/[bound humanized Ab]) vs ([murine Ab]/[humanized Ab]), which theoretically yield a straight line with slope=(K_{d humanized Ab}/K_{d murine Ab}), were used to determine the relative affinities of the humanized and murine antibodies.
(§2) An Immulon-2HB ELISA plate was coated with 100 μL of 5 μg/mL streptavidin per well in carbonate buffer at ambient temperature for 7 h. […] The wells were then washed with TBS-T buffer and incubated with goat-anti-human-Fab′₂-antibody-horseradish peroxidase conjugate for 1 h (100 μL; 1 μg/mL in blocking buffer), followed by washes and detection using ABTS/H₂O₂ substrate at 405 nm.

[2] = target: IGF-I receptor of 3T3 cells (mouse) (mouse, UniProt Q60751 31-1373); experiment: immunoprecipitation from cell lysate, Western blot
IGF-I receptor of 3T3 cells (mouse), sequence (Q60751 31-1373 limits assumed): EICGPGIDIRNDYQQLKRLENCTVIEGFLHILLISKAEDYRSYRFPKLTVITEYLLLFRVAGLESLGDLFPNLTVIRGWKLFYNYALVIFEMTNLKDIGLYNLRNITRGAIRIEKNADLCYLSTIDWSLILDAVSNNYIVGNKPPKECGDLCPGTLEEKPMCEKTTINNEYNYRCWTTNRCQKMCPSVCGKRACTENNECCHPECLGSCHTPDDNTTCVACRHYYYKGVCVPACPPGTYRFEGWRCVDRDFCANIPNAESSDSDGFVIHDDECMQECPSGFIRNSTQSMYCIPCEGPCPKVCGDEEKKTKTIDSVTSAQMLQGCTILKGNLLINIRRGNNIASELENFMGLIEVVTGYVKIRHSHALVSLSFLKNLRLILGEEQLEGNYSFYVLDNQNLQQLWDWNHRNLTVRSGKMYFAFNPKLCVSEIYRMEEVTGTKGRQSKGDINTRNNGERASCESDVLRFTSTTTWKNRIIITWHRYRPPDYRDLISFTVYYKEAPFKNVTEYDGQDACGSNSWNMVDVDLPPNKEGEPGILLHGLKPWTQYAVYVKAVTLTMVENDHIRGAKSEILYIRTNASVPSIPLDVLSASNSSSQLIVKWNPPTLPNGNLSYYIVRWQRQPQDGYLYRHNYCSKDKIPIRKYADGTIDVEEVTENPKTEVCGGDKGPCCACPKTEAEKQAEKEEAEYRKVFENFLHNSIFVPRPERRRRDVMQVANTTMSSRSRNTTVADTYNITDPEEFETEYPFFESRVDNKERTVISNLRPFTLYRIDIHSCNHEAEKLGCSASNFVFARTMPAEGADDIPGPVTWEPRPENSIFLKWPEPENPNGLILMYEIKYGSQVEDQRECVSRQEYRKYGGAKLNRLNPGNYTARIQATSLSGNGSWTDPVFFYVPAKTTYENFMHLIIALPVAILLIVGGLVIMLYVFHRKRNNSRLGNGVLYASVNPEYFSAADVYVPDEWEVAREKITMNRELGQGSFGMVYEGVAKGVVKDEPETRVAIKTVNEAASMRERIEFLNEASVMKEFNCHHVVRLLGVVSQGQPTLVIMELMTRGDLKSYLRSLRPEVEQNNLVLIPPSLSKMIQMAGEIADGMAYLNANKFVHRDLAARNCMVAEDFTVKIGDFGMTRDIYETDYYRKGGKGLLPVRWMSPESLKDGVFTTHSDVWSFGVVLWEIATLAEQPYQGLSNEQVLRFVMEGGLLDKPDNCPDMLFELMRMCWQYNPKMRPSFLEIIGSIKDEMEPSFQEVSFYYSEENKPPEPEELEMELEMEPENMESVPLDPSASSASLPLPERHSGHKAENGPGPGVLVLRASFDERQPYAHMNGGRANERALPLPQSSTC

[3] = target: T2, human insulin receptor, overexpressed on 3T3-like cells of IGF-I receptor deficient mice (human, UniProt P06213 28-1382); experiment: FACS on cells overexpressing human insulin receptor
T2 construct: whole, on cells; also called insulin receptor overexpressing cells
Procedure: The cells were pelleted by centrifugation and washed with cold FACS buffer by gentle flicking, followed by incubation with goat-anti-mouse-IgG-antibody-FITC conjugate (100 μL; 10 μg/mL in FACS buffer) on ice for 1 h. The cells were pelleted, washed, and resuspended in 120 μL of 1% formaldehyde solution in PBS. The plate was analyzed using a FACSCalibur reader (BD Biosciences).

[4] = target: T1, purified full-length human IGF-I …; experiment: ELISA binding competition with murine EM164 on captured biotinylated IGF-I receptor
Procedure: as §1, §2

binding result [1]: binds
B1: humanized EM164 antibody version 1.1 (antibody, V domains shown)
VH: QVQLVQSGAEVVKPGASVKLSCKASGYTFTSYWMHWVKQRPGQGLEWIGEINPSNGRTNYNQKFQGKATLTVDKSSSTAYMQLSSLTSEDSAVYYFARGRPDYYGSSKWYFDVWGQGTTVTVS
VL: DVLMTQTPLSLPVSLGDPASISCRSSQSIVHSNVNTYLEWYLQKPGQSPKLLIYKVSNRFSGVPDRFSGSGAGTDFTLRISRVEAEDLGIYYCFQGSHVPPTFGGGTKLEIKR
notes: Expressed transiently in 293T cells; also called huEM164 V1.1; v1.1

binding result [2]: no binding
binding result [3]: no binding (tested: 50-100 nM)
B2: murine anti-IGF-I receptor antibody EM164 (antibody, V domains shown)
VH: B1 VH with V5Q, V11L, Q62E, Q65K, G66R, Q116A
VL: B1 VL with P18Q, A72S
notes: also called EM164 antibody; muEM164

binding result [1]: binds
B3: humanized EM164 antibody version 1.2 (antibody, V domains shown)
VH: B1 VH
VL: B1 VL with K50R
notes: Expressed transiently in 293T cells; also called huEM164 V1.2; v1.2

binding result [4]: binds
B4: humanized EM164 antibody version 1.0 (antibody, V domains shown)
VH: B1 VH
VL: B1 VL with L3V, K50R
notes: Expressed transiently in 293T cells; also called huEM164 V1.0; huEM164 v1.0
